According to patent publication US20250026841A1 (AP BIOSCIENCES, published 2025):
Where two headings read alike, the source gives them in different places.

T1: CD73, cell membrane-bound (expressed by MDA-MB-231 cells) (human, UniProt P21589 27-549)
T1 construct: whole, on cells; also called CD73-expressing MDA-MB-231 breast cancer cells
T1 sequence (looked up): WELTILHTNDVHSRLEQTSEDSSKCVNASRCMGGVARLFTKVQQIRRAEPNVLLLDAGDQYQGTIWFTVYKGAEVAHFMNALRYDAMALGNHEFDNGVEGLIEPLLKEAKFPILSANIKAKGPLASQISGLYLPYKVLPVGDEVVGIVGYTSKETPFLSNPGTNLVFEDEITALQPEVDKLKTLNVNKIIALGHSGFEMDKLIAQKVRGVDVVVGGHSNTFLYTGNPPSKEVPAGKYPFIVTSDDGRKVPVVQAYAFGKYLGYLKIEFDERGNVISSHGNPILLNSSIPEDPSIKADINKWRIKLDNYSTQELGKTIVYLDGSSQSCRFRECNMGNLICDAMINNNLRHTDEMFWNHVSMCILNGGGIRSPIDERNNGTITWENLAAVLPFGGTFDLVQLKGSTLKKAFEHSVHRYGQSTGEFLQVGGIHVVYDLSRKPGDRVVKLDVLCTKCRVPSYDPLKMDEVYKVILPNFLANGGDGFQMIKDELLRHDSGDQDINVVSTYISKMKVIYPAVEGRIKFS

T2: CD73 (antigen of the CD73 ELISA) (UniProt P21589 27-547, limits assumed)
T2 construct: the ELISA antigen is not described
T2 sequence (looked up): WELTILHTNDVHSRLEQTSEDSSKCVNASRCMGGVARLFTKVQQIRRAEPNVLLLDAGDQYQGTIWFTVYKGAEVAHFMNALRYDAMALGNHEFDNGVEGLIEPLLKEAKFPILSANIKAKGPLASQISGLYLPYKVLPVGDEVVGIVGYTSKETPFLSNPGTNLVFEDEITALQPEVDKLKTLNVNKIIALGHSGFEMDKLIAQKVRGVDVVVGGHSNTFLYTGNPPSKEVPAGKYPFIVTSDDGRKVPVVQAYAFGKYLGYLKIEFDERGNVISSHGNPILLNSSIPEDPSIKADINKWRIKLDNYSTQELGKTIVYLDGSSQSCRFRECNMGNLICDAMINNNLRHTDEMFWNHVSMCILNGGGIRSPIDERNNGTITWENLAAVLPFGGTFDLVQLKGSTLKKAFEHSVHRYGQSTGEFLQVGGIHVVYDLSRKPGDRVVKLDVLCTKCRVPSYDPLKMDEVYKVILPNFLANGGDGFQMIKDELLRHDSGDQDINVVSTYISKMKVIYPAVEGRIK

T3: soluble CD73 secreted by MDA-MB-231 cells (human, UniProt P21589 27-549, limits assumed)
T3 sequence (looked up): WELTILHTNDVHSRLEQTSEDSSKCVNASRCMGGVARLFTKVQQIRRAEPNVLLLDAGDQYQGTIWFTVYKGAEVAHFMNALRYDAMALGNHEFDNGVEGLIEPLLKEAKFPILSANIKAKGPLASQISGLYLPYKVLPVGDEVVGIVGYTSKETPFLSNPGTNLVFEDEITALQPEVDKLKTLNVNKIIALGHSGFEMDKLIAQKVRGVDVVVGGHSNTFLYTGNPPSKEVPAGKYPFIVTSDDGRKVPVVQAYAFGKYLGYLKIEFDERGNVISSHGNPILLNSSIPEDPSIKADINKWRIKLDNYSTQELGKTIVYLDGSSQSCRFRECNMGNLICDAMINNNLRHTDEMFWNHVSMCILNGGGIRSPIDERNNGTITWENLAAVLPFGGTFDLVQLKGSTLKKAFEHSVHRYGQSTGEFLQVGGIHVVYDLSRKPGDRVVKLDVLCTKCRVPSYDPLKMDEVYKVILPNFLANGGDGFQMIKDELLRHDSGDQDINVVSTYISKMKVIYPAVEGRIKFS

T4: his-tagged human CD73 (AcroBiosystems, Cat. No. CD3-H52H7) (human, UniProt P21589 27-547)
T4 construct: Bought protein; also called hCD73-His; human CD73 antigen; not shown: His tag
T4 sequence (looked up): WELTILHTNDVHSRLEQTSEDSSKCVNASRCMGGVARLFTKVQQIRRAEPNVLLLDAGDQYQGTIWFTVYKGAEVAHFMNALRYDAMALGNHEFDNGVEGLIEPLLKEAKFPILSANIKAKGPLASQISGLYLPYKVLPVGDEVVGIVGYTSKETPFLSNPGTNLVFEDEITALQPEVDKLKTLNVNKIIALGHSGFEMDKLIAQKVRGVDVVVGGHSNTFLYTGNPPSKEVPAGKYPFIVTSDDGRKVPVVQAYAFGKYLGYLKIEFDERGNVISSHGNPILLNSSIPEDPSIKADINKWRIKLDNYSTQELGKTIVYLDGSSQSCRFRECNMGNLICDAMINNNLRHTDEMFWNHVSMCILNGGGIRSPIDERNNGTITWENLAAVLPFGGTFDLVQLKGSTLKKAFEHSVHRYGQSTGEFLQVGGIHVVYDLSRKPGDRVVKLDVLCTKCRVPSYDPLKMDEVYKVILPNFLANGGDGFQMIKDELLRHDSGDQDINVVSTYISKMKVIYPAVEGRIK


Columns and labels:
[1] = target: T1, CD73, cell membrane-bound (expressed by …); assay: flow cytometry, antibody 4 µg/ml on MDA-MB-231 cells, A488 anti-human IgG
Experimental: As illustrated in FIG. 15 the binding activity of anti-CD73 antibody leads was assessed by flow cytometer. MDA-MB-231 cells (1×10^5 cells) were surface stained with anti-CD73 antibody (4 μg/ml) for 30 minutes, then incubated with A488-conjugated anti-human IgG secondary antibody for 15 minutes on ice. Cells were analyzed by flow cytometer, and A488 fluorescence intensity was shown by histograms (left) and number (right table). As illustrated in FIG. 16 the blockade of CD73 enzymatic activity by anti-CD73 antibody leads was assessed. The enzymatic activity of CD73 expressed by MDA-MB-231 on the cell surface was blocked by anti-CD73 antibody leads.

[2] = target: T2, CD73 (antigen of the CD73 ELISA); assay: phage ELISA on coated CD73-flag-HIS; X-flag-HIS control bars not seen above the axis
[3] = target: T5, mouse Fc tagged human CD137 protein (AcroBiosystems, Cat #41B-H5256) (human, UniProt Q07011 24-186); assay: BLI (Octet), hCD73-His on HIS1K sensor, antibody 100 nM, then CD137-mFc 100 nM
T5 construct: extracellular domain; Bought protein; also called CD137 extracellular domain fused with mouse Fc tag recombinant protein; human CD137 antigen
Experimental: The binding activities of the AP601 was determined by ForteBIO® (Menlo Park, Calif.) biosensor analysis. In this method, the His tagged human CD73 protein (AcroBiosystems, Cat. No. CD3-H52H7) were loaded onto HIS1K (Anti-Penta-HIS) biosensor (Cat. No. 18-5120) at 5 μg/mL for 5 minutes. Sensors then were exposed to antibody samples at 100 nM for 5 minutes follow by associating with the mouse Fc tagged human CD137 protein (AcroBiosystems, Cat. No. 41B-H5256) at 100 nM for 5 minutes. The binding chart were produced by Octet Data Acquisition and Analysis Software.

[4] = target: T1, CD73, cell membrane-bound (expressed by …); assay: cell-based or functional assay
[5] = target: T3, soluble CD73 secreted by MDA-MB-231 …; assay: cell-based or functional assay
[6] = target: T4, his-tagged human CD73 (AcroBiosystems, …); assay: BLI (Octet), antibody on AHC sensor, hCD73-His 2-fold from 30 nM, 7 points
Experimental: (§1) The affinity of anti-CD73 mAbs and bsAbs were determined by biolayer interferometry analysis (ForteBIO, USA). In this method, anti-CD73 antibodies were loaded at 5 μg/mL on AHC (Anti-Human IgG Fc Capture, ForteBIO, Cat. No. 18-5060) for signal reach to approximate 0.5 nm. Sensors then were exposed to his-tagged human CD73 (AcroBiosystems, Cat. No. CD3-H52H7)-containing solutions that 2-fold serial diluted from the top concentration 30 nM for total 7 points. Measurements were performed as follows: 1 minute baseline in kinetic buffer, 5 minutes association in hCD73-His-containing solutions, and 5 minutes dissociation into kinetic buffer. The kinetic parameters were calculated and produced by Octet Data Acquisition and Analysis Software.

[7] = target: T4, his-tagged human CD73 (AcroBiosystems, …); assay: biolayer interferometry; antibody captured on AHC sensor, hCD73-His as analyte
Experimental: as §1

[8] = target: T2, CD73 (antigen of the CD73 ELISA); assay: phage ELISA on coated CD73-flag-HIS; X-flag-HIS control bars not seen above the axis; remark: listed apart in the source
[9] = target: T5, mouse Fc tagged human CD137 protein …; assay: BLI (Octet), biotinylated p95 peptide on SA sensor, antibody 100 nM, then CD137-mFc 100 nM
Experimental: The binding activities of anti-p95HER2-CD137 bispecific antibody was determined by ForteBIO® (Menlo Park, Calif.) biosensor analysis. In this method, the custom synthesis biotinylated Her2 p95 peptide (GenScript) was loaded onto SA (Streptavidin, ForteBIO, Cat #18-5019) biosensor at 50 μg/mL for 5 minutes. Sensors then were exposed to antibody samples at 100 nM for 5 minutes follow by associating with the mouse Fc tagged human CD137 protein (AcroBiosystems, Cat #41B-H5256) at 100 nM for 5 minutes. The binding chart were produced by Octet Data Acquisition and Analysis Software.

| Binder | binding result [1] | IC50, inhibition of cell membrane-bound CD73 enzyme (AMP-Glo, MDA-MB-231 cells) [4] [nM] | IC50, inhibition of soluble CD73 enzyme (AMP-Glo, MDA-MB-231 cultured medium) [5] [nM] | Kd [6] [nM] | fold improvement of binding affinity against parental #3-1-28 [7] [fold] | also measured |
| --- | --- | --- | --- | --- | --- | --- |
| anti-CD73 antibody clone 3-1-28 (antibody, human IgG1, lambda, N297A, V domains shown, also called CD73 #3-1-28; parental #3-1-28) VH: QVQLVQSGAEVKKPGSSVKVSCKASGGTFSSYAISWVRQAPGQGLEWMGRIIPILGIANYAQKFQGRVTITADKSTSTAYMELSSLRSEDTAVYYCARDSPVHYYGSGSYYRDAFDIWGQGTMVTVSS VL: not shown | – | 0.49 | 1.48 | 1.04 | – | binding result [3]: no binding (tested: 100 nM) |
| anti-CD73 #3-1-28-v1 (antibody, human IgG1, lambda, N297A, V domains shown, engineered IgG1 constant region; also called #1919-003; anti-CD73 #3-1-28 (S51A Q54E)) VH: QVQLVQSGAEVKKPGSSVKVSCKASGGTFSSYAISWVRQAPGQGLEWMGRIIPILGIANYAQKFQGRVTITADKSTSTAYMELSSLRSEDTAVYYCARDSPVHYYGSGSYYRDAFDIWGQGTMVTVSS VL: QSVLTQPPSASGTPGQRVIISCSGSSSNIGSNSVYWYQQLPGTAPKLLIYANNERPSGVPGRFSGSKSGTSASLAISGLRSEDEADYYCAAWDDSLRGPVFGGGTKLTVLG | – | 0.213 | 0.187 | 0.344 | ~2 | – |
| anti-CD73 #3-1-28-v2 (antibody, human IgG1, lambda, N297A, V domains shown, also called #1911-022; anti-CD73 #3-1-28 (S107D S109H)) VH: QVQLVQSGAEVKKPGSSVKVSCKASGGTFSSYAISWVRQAPGQGLEWMGRIIPILGIANYAQKFQGRVTITADKSTSTAYMELSSLRSEDTAVYYCARDSPVHYYGDGHYYRDAFDIWGQGTMVTVSS VL: not shown | – | 0.245 | 0.273 | 0.523 | ~2 | – |
| anti-p95HER2 antibody clone R4-11 (antibody, human IgG1, kappa, V domains shown, also called p95HER2 #R4-11; #R4-11 mAb) VH: QITLKESGPTLVKPTQTLTLTCTFSGFSLSTSGVGVGWIRQPPGKALEWLALIYWDDDKRYSPSLKSRLTITKDTSKNQVVLTMTNMDPVDTATYYCAHAHPFSGSYNFWGQGTLVTVSS VL: DIVMTQSPDSLAVSLGERATINCKSSQSVLFSSNNKDYLAWYQQRPGQPPKLLIHWASTREPGVPDRFSGSGSGTDFTLTISSLQAEDVAVYYCLQSYSNPPTFGQGTKVEIKR | – | – | – | – | – | binding result [9]: no binding (tested: 100 nM) |

More lines, main results first:

| binding result [1] | IC50, inhibition of cell membrane-bound CD73 enzyme (AMP-Glo, MDA-MB-231 cells) [4] [nM] | IC50, inhibition of soluble CD73 enzyme (AMP-Glo, MDA-MB-231 cultured medium) [5] [nM] | Kd [6] [nM] | fold improvement of binding affinity against parental #3-1-28 [7] [fold] | Binder | also measured |
| --- | --- | --- | --- | --- | --- | --- |
| binds | – | – | – | – | CR3-16 (antibody, IgG1, V domains shown, also called anti-CD73 antibody clone 3-16) VH: QVQLVQSGAEVKKPGASVKVSCKASGYTFTDFYIHWVRQAPGQGLEWMGWINPYSGSTNYPQKFQGRVTMTRDTSISTAYMDLSSLTSDDTAVYLCVRGRWFDFDYWGQGTTVTVSS VL: QSALTQPPSVSGSPGQSITISCTGTSSDVGTYNFVSWYQQHPGKVPKLIIYDVSNRPSGVSIRFSGSKSGNTASLTISGLQAEDEADYYCSSFRSGSTYVFGTGTRVTVLG | binding result [2]: binds |
| – | – | 0.241 | 0.553 | ~2 | anti-CD73 #3-1-28-v3 (antibody, human IgG1, lambda, N297A, V domains shown, also called #1911-030; anti-CD73 #3-1-28 (S107D S109T A114S)) VH: QVQLVQSGAEVKKPGSSVKVSCKASGGTFSSYAISWVRQAPGQGLEWMGRIIPILGIANYAQKFQGRVTITADKSTSTAYMELSSLRSEDTAVYYCARDSPVHYYGDGTYYRDSFDIWGQGTMVTVSS VL: not shown | – |
| binds | – | – | – | – | CR3-1-37 (antibody, IgG1, V domains shown, also called anti-CD73 antibody clone 3-1-37) VH: QVQLVQSGAEVKRPGSSVKVSCKASGGTFSSYAISWVRQAPGQGLEWMGGIIPIFGTANYAQKFQGRVTITADESTSTAYMELSSLRSEDTAVYYCARGVSYYYGMHVWGQGTTVTVSS VL: SYVLTQPPSVSVTPGKTARIACGGNNLESKIVSWYQQKPGQAPVLVIFYDTDRPSGISERFSGSNSGNTATLTISRVEAGDEADYYCQVWDSNSDHVIFGGGTKLTVLG | binding result [8]: binds |
| binds | – | – | – | – | anti-CD73 antibody clone 3-4 (antibody, V domains shown, also called CD73 #3-4; CR3-4) VH: not shown VL: QSALTQPASVSGSPGQSITISCTGTSSDVGSYNLVSWYQQHPGKAPKLMIYEGSKRPSGVSNRFSGSKSGNTASLTISGLQAEDEADYYCCSYAGSSGWDIGTGTKVTVLG | binding result [2]: binds |
